The test system of assay [1] is K. pneumoniae carbapenem-resistant (CRE) strain Kp1131115 (O1). Briefly: acute lethal pneumonia model, survival. The settings on record: C57BL/6 mice, antibody one hour post bacterial challenge, vs human IgG1 control (R347). The format is in vivo, Klebsiella pneumoniae. The procedure: In an acute pneumonia model, C57BL/6 mice were inoculated intranasally with 1e4 to 1e8 CFU of the multi-drug resistant Klebsiella pneumoniae carbapenam resistant (CRE) clinical isolate strain KP1131115 (O1). Anti-K. pneumoniae monoclonal antibody KPE33 at 0.2, 1, and 5 mg/kg and human IgG1 control antibody at 5 mg/kg were given one hour post bacterial challenge (therapeutic dosing). Mouse survival was monitored daily until up to day 8.
Additionally, in an acute pneumonia model, C57BL/6 mice were inoculated intranasally with 1e4 to 1e8 CFU of the multi-drug resistant Klebsiella pneumoniae carbapenam resistant (CRE) clinical isolate strain KP1131115 (O1). Anti-K. pneumoniae monoclonal antibodies […] and […] at 0.2 and 1 mg/kg and human IgG1 control antibody at 5 mg/kg were given one hour post bacterial challenge (therapeutic dosing). Mouse survival was monitored daily until up to day 8.
KPE33 or KPE33-V-2016 were administered at a dose of 6 mg/kg 1 hour post bacterial infection with a Klebsiella pneumoniae carbapenam resistant strain.

For another assay, the target named is O1 LPS. Briefly: Octet binding affinity to O1 LPS. Set-up: species or system Klebsiella pneumoniae. As to conditions: average, from on-rate and off-rate, read-out: affinity constant (KD) to O1 LPS. An excerpt:
In order to reduce potential sequence liabilities for antibody development including potential immunogenicity due to anti-drug antibodies, an unpaired Cysteine in the light chain CDR3 of KPE33 was exchanged with Threonine (T), and somatic mutations in the frameworks 1, 2, and 4 of KPE33 were replaced with germ line residues (as summarized in FIG. 5). CDRs were maintained as wildtype, except for the C107T substitution described above. The optimized KPE33 was named KPE33v2016. […] This platform provides a powerful tool to measure the rate of biomolecular complex formation and complex stability in a more biologically meaningful setting. Briefly, Protein A coated sensors were coated with 2 μg/mL O1 LPS for 10 minutes before being dipped into solution containing 0.2 μg/mL anti-O1 LPS mAbs in Kinetics buffer (ForteBio, dilute 10× to 1× with PBS). Changes in the number of molecules bound to the biosensor caused a shift in the interference pattern that was recorded in real time. […] The affinity constant (KD) of KPE33 and KPE33v2016 to O1 LPS was calculated based on the on-rate and off-rate from Octet sensorgram.
KPE33v2016 was further optimized, thereby creating two new variants—KPE33 H32+L2016(1EQ) and KPE33 H33+L2016(1EQ). Both of these variants contain a Methionine to Isoleucine mutation adjacent to CDRH1, a Tryptophan to Tyrosine mutation in CDRH2, an Aspartate to Glutamate mutation adjacent to CDRH2, Asparagine to Glutamine and Methionine to Leucine mutations in FRH3 and an Aspartate to Asparagine mutation in CDRH3. In addition, KPE33 H32+L2016(1EQ) had four FRH3 residues changed to the germ-line residues, whereas KPE33 H33+L2016(1EQ) only has three of the same FRH3 residues changed to the germ-line. Both of these variants contain the same light chain as KPE33v2016, but with a single Glutamate to Glutamine mutation in residue 1.
On the technique in general: Biolayer interferometry detects binding as a change in optical thickness at a sensor tip.

B1: KPE33 H32+L2016(1EQ): further optimized variant of KPE33v2016, VH SEQ ID NO:61, VL SEQ ID NO:63 (antibody, V domains shown)
VH: QVQLVESGGGLVQPGRSLRLSCAASGFIFDDYAIHWVRQAPGKGLEWVSGIAYKSGATNYAESVKGRFTISRDQSKNSLYLQMNSLRAEDTALYYCTRRRASGDNTFYYFDYWGQGTLVTVSS
VL: QIVLTQSPATLSLSPGERATLSCRASQNVNTNLAWYQQKPGQAPRLLIYDASNRATGIPARFSGSGSGTDFTLTISSLEPEDFAVYYCQQTTNWRYTFGQGTKLEIK
Usually Kd stands for a measure of binding affinity in units of concentration. With B1, the “survival, lethal pneumonia Kp1131115” value in assay [1] is “dose dependently enhanced survival”; in assay [1] (listed as KPE33-H32+L2016(EQ1)) it was “protect mice from lethal bacterial challenge”. For the same molecule, the Kd on O1 LPS was 4.46 nM.

B2: KPE33 H33+L2016(1EQ): further optimized variant of KPE33v2016, VH SEQ ID NO:62, VL SEQ ID NO:63 (antibody, V domains shown)
VH: QVQLVESGGGLVQPGRSLRLSCAASGFIFDDYAIHWVRQAPGKGLEWVSGIAYKSGATNYAESVKGRFTISRDQSKKSLYLQMNSLRAEDTALYYCTRRRASGDNTFYYFDYWGQGTLVTVSS
VL: QIVLTQSPATLSLSPGERATLSCRASQNVNTNLAWYQQKPGQAPRLLIYDASNRATGIPARFSGSGSGTDFTLTISSLEPEDFAVYYCQQTTNWRYTFGQGTKLEIK
On to B2, for which the “survival, lethal pneumonia Kp1131115” value in assay [1] is listed as “dose dependently enhanced survival”. Also, on O1 LPS, the Kd amounted to 5.01 nM.

The values above are taken from patent US12018068B2, “Anti-O1 antibodies and uses thereof” (priority 2016, dated 2024).
